Drawing on patent EP0817650B1, this text covers %inhibition for three substances.

Test [1] deals with T1, MHC Class II products on splenic antigen-presenting cells of BALB/c mice (H-2 d) (mouse) (UniProt P04228).
T1 sequence (alpha): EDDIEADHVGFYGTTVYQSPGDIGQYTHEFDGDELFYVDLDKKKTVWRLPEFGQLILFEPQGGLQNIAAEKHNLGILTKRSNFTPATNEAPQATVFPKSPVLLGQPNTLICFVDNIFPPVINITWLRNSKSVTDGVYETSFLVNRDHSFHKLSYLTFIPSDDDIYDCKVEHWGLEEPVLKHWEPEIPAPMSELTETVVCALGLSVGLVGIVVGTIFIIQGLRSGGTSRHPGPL
T1 sequence (beta): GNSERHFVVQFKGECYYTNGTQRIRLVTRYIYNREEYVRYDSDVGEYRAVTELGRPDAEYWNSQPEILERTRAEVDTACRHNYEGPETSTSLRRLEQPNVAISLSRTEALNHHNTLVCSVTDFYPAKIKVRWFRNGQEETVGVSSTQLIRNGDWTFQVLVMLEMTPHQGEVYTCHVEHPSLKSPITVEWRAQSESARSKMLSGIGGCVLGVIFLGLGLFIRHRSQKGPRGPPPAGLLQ
Kind of test: flow cytometry, inhibition of binding to BALB/c splenic APC; competitor: biotinylated peptide Ia. For orientation: Flow cytometry measures light scatter and fluorescence of single cells or particles in a stream.

The target of test [2] is MHC Class II products on splenic antigen-presenting cells of C3H.SW mice (H-2 b) (mouse) (UniProt P14434). Kind of test: flow cytometry, inhibition of binding to C3H.SW splenic APC; competitor: biotinylated peptide Ia.
Test [3] has as its target MHC Class II products on splenic antigen-presenting cells of C57BL/6 mice (H-2 b) (mouse) (UniProt P14434). Nature of the test: flow cytometry, inhibition of binding to C57BL/6 splenic APC; competitor: biotinylated peptide Ia.
Test [4] addresses T1, MHC Class II products on splenic antigen-presenting cells of BALB/c mice (H-2 d) (mouse). Kind of test: flow cytometry, inhibition of binding to BALB/c splenic APC; competitor: biotinylated peptide IIIa.
Test [5] has as its target MHC Class II products on splenic antigen-presenting cells of C3H.SW mice (H-2 b) (mouse) (UniProt P14434). Nature of the test: flow cytometry, inhibition of binding to C3H.SW splenic APC; competitor: biotinylated peptide IIIa.
In test [6] the target is MHC Class II products on splenic antigen-presenting cells of C57BL/6 mice (H-2 b) (mouse) (UniProt P14434). Nature of the test: flow cytometry, inhibition of binding to C57BL/6 splenic APC; competitor: biotinylated peptide IIIa.
The target in test [7] is MHC Class II products on splenic antigen-presenting cells of SJL mice (H-2 s) (mouse). Kind of test: flow cytometry, inhibition of binding to SJL splenic APC; competitor: biotinylated peptide Ia.
The target is the same in test [8]. Kind of test: flow cytometry, inhibition of binding to SJL splenic APC; competitor: biotinylated peptide IIIa.

On to “34-5-3 (anti-I-A^b, Pharmingen) (antibody)”, for which the %inhibition amounted to 0% in test [1]; 60% in test [2]; 82% in test [3]; 0% in test [4]; 84.4% in test [5]; 59.3% in test [6].
Regarding 10.3.6.2 (anti-I-A^s) (antibody), the values for the %inhibition in test [7] and in test [8] were 100% and 92.8%, respectively.
Consider “MKD6 (anti-I-A^d, Beckton-Dickinson) (antibody)”, for which the %inhibition in test [7] turned out to be 0%; in test [8], 0%; in test [1] it was 76.7%; in test [2], 0%; in test [3] it was 0%; in test [4] it was 100%. The %inhibition is 25% in test [5] and 0% in test [6].

As usually defined, the %inhibition is the drop in the measured response relative to a control, in per cent. A higher %inhibition goes with a strong effect.
